Earlier results in patent US20040096894A1, “Crystal structures of P- selectin, P- and E-selectin complexes, and uses thereof” (priority 2000, published 2004).

Biological target: T1, full-length neutrophil PSGL-1 (Homo sapiens, UniProt Q14242)
T1 construct: to full-length neutrophil PSGL-1; host or cells: neutrophils
T1 sequence (Q14242 42-412): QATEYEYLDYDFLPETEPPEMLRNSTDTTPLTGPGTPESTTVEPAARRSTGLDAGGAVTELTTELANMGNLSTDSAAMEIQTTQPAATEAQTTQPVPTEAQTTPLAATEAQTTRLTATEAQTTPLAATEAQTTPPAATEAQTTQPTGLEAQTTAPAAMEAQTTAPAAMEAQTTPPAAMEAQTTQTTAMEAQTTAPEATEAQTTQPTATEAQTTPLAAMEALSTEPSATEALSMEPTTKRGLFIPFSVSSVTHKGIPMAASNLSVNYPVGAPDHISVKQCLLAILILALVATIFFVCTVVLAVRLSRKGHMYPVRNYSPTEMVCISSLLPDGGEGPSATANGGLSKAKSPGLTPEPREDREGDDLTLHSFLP
Conditions: previously determined values (Mehta et al., 1998); read-out: KD for binding to full-length neutrophil PSGL-1

B1: soluble P-selectin: Soluble P-selectin of the literature study (Mehta et al., 1998) (protein, UniProt P16109 42-771, looked up)
extracellular domain: WTYHYSTKAYSWNISRKYCQNRYTDLVAIQNKNEIDYLNKVLPYYSSYYWIGIRKNNKTWTWVGTKKALTNEAENWADNEPNNKRNNEDCVEIYIKSPSAPGKWNDEHCLKKKHALCYTASCQDMSCSKQGECLETIGNYTCSCYPGFYGPECEYVRECGELELPQHVLMNCSHPLGNFSFNSQCSFHCTDGYQVNGPSKLECLASGIWTNKPPQCLAAQCPPLKIPERGNMTCLHSAKAFQHQSSCSFSCEEGFALVGPEVVQCTASGVWTAPAPVCKAVQCQHLEAPSEGTMDCVHPLTAFAYGSSCKFECQPGYRVRGLDMLRCIDSGHWSAPLPTCEAISCEPLESPVHGSMDCSPSLRAFQYDTNCSFRCAEGFMLRGADIVRCDNLGQWTAPAPVCQALQCQDLPVPNEARVNCSHPFGAFRYQSVCSFTCNEGLLLVGASVLQCLATGNWNSVPPECQAIPCTPLLSPQNGTMTCVQPLGSSSYKSTCQFICDEGYSLSGPERLDCTRSGRWTDSPPMCEAIKCPELFAPEQGSLDCSDTRGEFNVGSTCHFSCDNGFKLEGPNNVECTTSGRWSATPPTCKGIASLPTPGVQCPALTTPGQGTMYCRHHPGTFGFNTTCYFGCNAGFTLIGDSTLSCRPSGQWTAVTPACRAVKCSELHVNKPIAMNCSNLWGNFSYGSICSFHCLEGQLLNGSAQTACQENGHWSTTVPTCQAGPLTIQEA
modifications: extracellular domain
  Kd: 322 nM
